This note sets out measurements from US20230240966.

First the molecules themselves.
T1: Suc-AAPA-pNA
T1 chain: AAPA

T2: Suc-AAPI-pNA
T2 chain: AAPI

T3: Suc-AAPD-pNA
T3 chain: AAPD

T4: Suc-AAPV-pNA
T4 chain: AAPV

T5: Suc-AAPR-pNA
T5 chain: AAPR

T6: Suc-AAPK-pNA
T6 chain: AAPK

T7: Suc-AAPE-pNA
T7 chain: AAPE

T8: Suc-AAPL-pNA
T8 chain: AAPL

T9: Suc-AAPM-pNA
T9 chain: AAPM

T10: Suc-AAPF-pNA
T10 chain: AAPF

B1: Serine protease from Nocardiopsis sp NRRL 18262 (protein)
chain: ADIIGGLAYTMGGRCSVGFAATNAAGQPGFVTAGHCGRVGTQVTIGNGRGVFEQSVFPGNDAAFVRGTSNFTLTNLVSRYNTGGYATVAGHNQAPIGSSVCRSGSTTGWHCGTIQARGQSVSYPEGTVTNMTRTTVCAEPGDSGGSYISGTQAQGVTSGGSGNCRTGGTTFYQEVTPMVNSWGVRLRT
B2: Glutamyl endopeptidase blaSE from Bacillus licheniformis (protein)
chain: SVIGSDDRTRVTNTTAYPYRAIVHISSSIGSCTGWMIGPKTVATAGHCIYDTSSGSFAGTATVSPGRNGTSYPYGSVKSTRYFIPSGWRSGNTNYDYGAIELSEPIGNTVGYFGYSYTTSSLVGTTVTISGYPGDKTAGTQWQHSGPIAISETYKLQYAMDTYGGQSGSPVFEQSSSRTNCSGPCSLAVHTNGVYGGSSYNRGTRITKEVFDNLTNWKNSAQ
B3: Thermostable alkaline protease BH0855 from Bacillus halodurans (protein)
chain: QTVPWGISFINTQQAHNRGIFGNGARVAVLDTGIASHPDLRIAGGASFISSEPSYHDNNGHGTHVAGTIAALNNSIGVLGVAPSADLYAVKVLDRNGSGSLASVAQGIEWAINNNMHIINMSLGSTSGSSTLELAVNRANNAGILLVGAAGNTGRQGVNYPARYSGVMAVAAVDQNGQRASFSTYGPEIEISAPGVNVNSTYTGNRYVSLSGTSMATPHVAGVAALVKSRYPSYTNNQIRQRINQTATYLGSPSLYGNGLVHAGRATQ
B4: Glutamyl endopeptidase II sprE from Streptomyces griseus (protein)
chain: VLGGGAIYGGGSRCSAAFNVTKGGARYFVTAGHCTNISANWSASSGGSVVGVREGTSFPTNDYGIVRYTDGSSPAGTVDLYNGSTQDISSAANAVVGQAIKKSGSTTKVTSGTVTAVNVTVNYGDGPVYNMVRTTACSAGGDSGGAHFAGSVALGIHSGSSGCSGTAGSAIHQPVTEALSAYGVTVY
B5: Subtilisin 309 variant from Bacillus clausii (protein)
chain: AQSVPWGIERVQAPAAHNRGLTGSGVKVAVLDTGISTHPDLRIRGGASFVPGEPSTQDGNGHGTHVAGTIAALDNSIGVLGVAPSEALYAVKVLGASGSGSVSSIAQGLEWAGNNGMHVANLSLGSPSPSATLEQAVNSATSRGVLVVAASGNSGAGSISYPARYANAMAVGATDQNNNRASFSQYGAGLDIVAPGVNILSTWPGSTYASLNGTSMATPHVAGAAALVKQKNPSWSNVQIRNHLKNTATSLGDTWEYGSGLVNAEAATR
B6: Subtilisin Carlsberg from Bacillus licheniformis (protein)
chain: AQTVPYGIPLIKADKVQAQGFKGANVKVAVLDTGIQASHPDLNVVGGASFVAGEAYNTDGNGHGTHVAGTVAALDNTTGVLGVAPSVSLYAVKVLNSSGSGSYSGIVSGIEWATTNGMDVINMSLGGASGSTAMKQAVDNAYARGVVVVAAAGNSGSSGNTNTIGYPAKYDSVIAVGAVDSNSNRASFSSVGAELEVMAPGAGVYSTYPTNTYATLNGTSMASPHVAGAAALILSKHPNLSASQVRNRLSSTATYLGSSFYYGKGLINVEAAAQ
B7: Lysyl endopeptidase from Achromobacter lyticus (protein)
chain: GVSGSCNIDVVCPEGDGRRDIIRAVGAYSKSGTLACTGSLVNNTANDRKMYFLTAHHCGMGTASTAASIVVYWNYQNSTCRAPNTPASGANGDGSMSQTQSGSTVKATYATSDFTLLELNNAANPAFNLFWAGWDRRDQNYPGAIAIHHPNVAEKRISNSTSPTSFVAWGGGAGTTHLNVQWQPSGGVTEPGSSGSPIYSPEKRVLGQLHGGPSSCSATGTNRSDQYGRVFTSWTGGGAAASRLSDWLDPASTGAQFIDGLDSGGGTP
B8: Trypsin from Fusarium oxysporum (protein)
chain: IVGGTSASAGDFPFIVSISRNGGPWCGGSLLNANTVLTAAHCVSGYAQSGFQIRAGSLSRTSGGITSSLSSVRVHPSYSGNNNDLAILKLSTSIPSGGNIGYARLAASGSDPVAGSSATVAGWGATSEGGSSTPVNLLKVTVPIVSRATCRAQYGTSAITNQMFCAGVSSGGKDSCQGDSGGPIVDSSNTLIGAVSWGNGCARPNYSGVYASVGALRSFIDTYA
B9: Serine protease bppB from Bacillus pumilus JA16 (protein)
chain: VVIGDDGRTKVTNTRVAPYNSIAYITFGGSSCTGTLIAPNKILTNGHCVYNTATRSYSAKGSVYPGMNDSTAVNGSANMTEFYVPSGYINTGASQYDFAVIKTDTNIGNTVGYRSIRQVTNLTGTTIKISGYPGDKMRSTGKVSQWEMSGPVTREDTNLAYYTIDTFSGNSGSAMLDQNQQIVGVHNAGYSNGTINGGPKATAAFVEFINYAKAQ

A value given as a limit tells only on which side of the number the result lay.

The target in the first data set is T1, Suc-AAPA-pNA. Particulars: scale: relative to the substrate with the highest activity.
Take B1: the relative activity (initial increase in OD405) was found to be 0.0001.

In the case of B2, the relative activity (initial increase in OD405) is 0.0001.

Protein B3 showed a relative activity (initial increase in OD405) of 0.088.

Take B4: the relative activity (initial increase in OD405) came out at 0.

In turn, B5 showed a relative activity (initial increase in OD405) of 0.0566.

B6 yielded a relative activity (initial increase in OD405) of 0.0222.

Protein B7 gave a relative activity (initial increase in OD405) of 0.0005.

B8 yielded a relative activity (initial increase in OD405) of 0.

Regarding B9, the relative activity (initial increase in OD405) came out at 0.

The target of a further data set is type II (60-70 kDa) keratins of the ORS.
Details: not given
Consider B2, for which the “hydrolysis of ORS tissue protein, SDS-PAGE with Coomassie Blue” value is 5 ppm HZ-2 fully degraded type I and type II during the experiment.

The target in a further data set is T2, Suc-AAPI-pNA. Particulars: scale: relative to the substrate with the highest activity.
Consider B1, for which the relative activity (initial increase in OD405) was 0.0004.

Consider B2, for which the relative activity (initial increase in OD405) came to 0.

In turn, B3 registered a relative activity (initial increase in OD405) of 0.0005.

B4 displayed a relative activity (initial increase in OD405) of 0.

B5: the relative activity (initial increase in OD405) turned out to be 0.0003.

As for B6, the relative activity (initial increase in OD405) came to 0.0005.

With B7, the relative activity (initial increase in OD405) turned out to be 0.0017.

B8 yielded a relative activity (initial increase in OD405) of 0.

B9 displayed a relative activity (initial increase in OD405) of 0.

In the next data set the target is T3, Suc-AAPD-pNA. Particulars: scale: relative to the substrate with the highest activity.
Take B1: the relative activity (initial increase in OD405) is 0.0028.

The protein B2 returned a relative activity (initial increase in OD405) of 0.002.

In turn, B3 came in with a relative activity (initial increase in OD405) of 0.0053.

The protein B4 yielded a relative activity (initial increase in OD405) of 0.158.

B5 displayed a relative activity (initial increase in OD405) of 0.0001.

B6: the relative activity (initial increase in OD405) came to 0.0008.

In turn, B7 gave a relative activity (initial increase in OD405) of 0.0006.

Protein B8 showed a relative activity (initial increase in OD405) of 0.

B9 gave a relative activity (initial increase in OD405) of 0.0043.

Another data set addresses T4, Suc-AAPV-pNA. Particulars: scale: relative to the substrate with the highest activity.
On to B1, for which the relative activity (initial increase in OD405) came out at 0.0121.

B2 displayed a relative activity (initial increase in OD405) of 0.0001.

With B3, the relative activity (initial increase in OD405) stood at 0.0008.

In the case of B4, the relative activity (initial increase in OD405) amounted to 0.

Protein B5 showed a relative activity (initial increase in OD405) of 0.0001.

Protein B6 displayed a relative activity (initial increase in OD405) of 0.0007.

B7 displayed a relative activity (initial increase in OD405) of 0.0007.

The protein B8 had a relative activity (initial increase in OD405) of 0.

For the protein B9, the relative activity (initial increase in OD405) worked out at 0.

The target in another data set is T5, Suc-AAPR-pNA. The following applies: scale: relative to the substrate with the highest activity.
The protein B1 gave a relative activity (initial increase in OD405) of 0.172.

The protein B2 returned a relative activity (initial increase in OD405) of 0.0001.

The protein B3 showed a relative activity (initial increase in OD405) of 0.0069.

B4: the relative activity (initial increase in OD405) turned out to be 0.0001.

B5 had a relative activity (initial increase in OD405) of 0.0002.

Consider B6, for which the relative activity (initial increase in OD405) is 0.019.

B7 showed a relative activity (initial increase in OD405) of 0.0005.

For the protein B8, the relative activity (initial increase in OD405) came out at 1.

In turn, B9 registered a relative activity (initial increase in OD405) of 0.

A further data set has as its target T6, Suc-AAPK-pNA. The following applies: scale: relative to the substrate with the highest activity.
As to B1, the relative activity (initial increase in OD405) is 0.0778.

B2 displayed a relative activity (initial increase in OD405) of 0.0001.

For the protein B3, the relative activity (initial increase in OD405) was determined as 0.0038.

In the case of B4, the relative activity (initial increase in OD405) was determined as 0.

Regarding B5, the relative activity (initial increase in OD405) came out at 0.0011.

Regarding B6, the relative activity (initial increase in OD405) stood at 0.0155.

As to B7, the relative activity (initial increase in OD405) turned out to be 1.

As to B8, the relative activity (initial increase in OD405) came to 0.84.

The protein B9 displayed a relative activity (initial increase in OD405) of 0.0003.

A further data set has as its target T7, Suc-AAPE-pNA.
Details: not given
On to B1, for which the Glutamyl endopeptidase ratio (GR) is below 0.001.

As to B2, the Glutamyl endopeptidase ratio (GR) came to 309.

B3: the Glutamyl endopeptidase ratio (GR) stood at 0.008.

B4: the Glutamyl endopeptidase ratio (GR) amounted to 6.

For the protein B5, the Glutamyl endopeptidase ratio (GR) was 0.003.

Take B6: the Glutamyl endopeptidase ratio (GR) amounted to 0.003.

As for B7, the Glutamyl endopeptidase ratio (GR) is below 0.001.

For the protein B8, the Glutamyl endopeptidase ratio (GR) was below 0.001.

On to B9, for which the Glutamyl endopeptidase ratio (GR) was 234.

The same data set, now with this note: scale: relative to the substrate with the highest activity.
B1 came in with a relative activity (initial increase in OD405) of 0.0004.

Protein B2 had a relative activity (initial increase in OD405) of 1.

B3 displayed a relative activity (initial increase in OD405) of 0.0083.

Protein B4 came in with a relative activity (initial increase in OD405) of 1.

B5 registered a relative activity (initial increase in OD405) of 0.0025.

B6 had a relative activity (initial increase in OD405) of 0.0033.

The protein B7 gave a relative activity (initial increase in OD405) of 0.

B8 had a relative activity (initial increase in OD405) of 0.0001.

As for B9, the relative activity (initial increase in OD405) was found to be 1.

The target in the next data set is T8, Suc-AAPL-pNA. The following applies: scale: relative to the substrate with the highest activity.
B1 showed a relative activity (initial increase in OD405) of 0.185.

Consider B2, for which the relative activity (initial increase in OD405) is 0.0027.

The protein B3 registered a relative activity (initial increase in OD405) of 1.

In the case of B4, the relative activity (initial increase in OD405) was found to be 0.

In turn, B5 had a relative activity (initial increase in OD405) of 0.17.

For B6, the relative activity (initial increase in OD405) worked out at 0.807.

Turning to B7, the relative activity (initial increase in OD405) came out at 0.0019.

In turn, B8 had a relative activity (initial increase in OD405) of 0.

B9: the relative activity (initial increase in OD405) is 0.0005.

The target of the next data set is T9, Suc-AAPM-pNA. Particulars: scale: relative to the substrate with the highest activity.
Regarding B1, the relative activity (initial increase in OD405) is 0.0003.

B2: the relative activity (initial increase in OD405) was determined as 0.0008.

Consider B3, for which the relative activity (initial increase in OD405) was 0.85.

In the case of B4, the relative activity (initial increase in OD405) amounted to 0.0001.

In turn, B5 had a relative activity (initial increase in OD405) of 0.861.

As for B6, the relative activity (initial increase in OD405) is 0.282.

For B7, the relative activity (initial increase in OD405) was 0.

B8 registered a relative activity (initial increase in OD405) of 0.

In turn, B9 came in with a relative activity (initial increase in OD405) of 0.

The target in the next data set is T10, Suc-AAPF-pNA. Particulars: scale: relative to the substrate with the highest activity.
In turn, B1 displayed a relative activity (initial increase in OD405) of 1.

With B2, the relative activity (initial increase in OD405) was 0.0032.

In turn, B3 gave a relative activity (initial increase in OD405) of 0.59.

For the protein B4, the relative activity (initial increase in OD405) amounted to 0.

As for B5, the relative activity (initial increase in OD405) was 1.

Take B6: the relative activity (initial increase in OD405) turned out to be 1.

In turn, B7 yielded a relative activity (initial increase in OD405) of 0.0041.

Turning to B8, the relative activity (initial increase in OD405) was found to be 0.0001.

On to B9, for which the relative activity (initial increase in OD405) was determined as 0.
